Results as given in publication PMC8196545 (Cell reports, 2021).
Residue numbers refer to the chain shown, from its start.

B1: c24251 (antibody, V domains shown)
VH: QVQLQESGPGLVKPSETLSLTCTVSGASINSYYWSWIRQTPGKGLEWIGFISNAGTTKYNPSLQSRVTISRDTSKNQVSLHLTSVTAADTAVYHCARDGLPGSNWGYNYAGMDVWGQGTTVTVTS
VL: DIQMTQSPSTLSASVGDRVTITCRTSQPISVWLAWYQQKPGKAPKVLIYRASSLEDGVPSRFSGSGSGTEFTLTISSLQPDDFATYFCQHYNTFSRTFGQGTKVEIK
B2: c11422 (antibody, V domains shown)
VH: EARLVESGGGRVQPGGSLRLSCEASGFRFSSYSFNWVRQSPGKGLEWLAKISASPFGRSQINYAHSVEGRFIISRDNDGNSLRLQMNDLRGADTGVYYCARAPWQERNLDYNYAMDVWGQGTTVIVSS
VL: ELVLTQSPGTLSLSPGERATVSCRASQSLRRDSLAWYQQKPGHSPRLLIFAASNRVPGIPYRFSGSGSGTQFTLTIDKMEPEDFAVYYCQTYGSSPLYTFGQGTKLDIN
B3: c1141 (antibody, V domains shown)
VH: QVRLHQWGEGLLRPSDTLSLTCSLSGNVFYETFFNWIRQSPGKGLEWIAEVSFAGDWNYNPSLKSRVTTYVDGFKYHASLHMRSMTAADAGVYYCAAGGGSFDVHSWGQGIRVTVSS
VL: EIVLTQTPLSSSVTLGQAASISCTSNHSLQHSNGNTYLSWFQQRPDQPPRLLIRKISNRGSGVPDRFSGSGSGTHFTLTIDRVEPEDVGTYYCVQATQFPWTFGQGTTVDIT
B4: c1174 (antibody, V domains shown)
VH: B3 VH with E31R, A54T, N58T, A78V, H81Q, R83S, A97S, H105D
VL: B3 VL with A18S, T24R, N26S, H27Q, D46G, G60F, G62E, H75D
B5: c1134 (antibody, V domains shown)
VH: B3 VH with H81Q, R83S
VL: B3 VL with T7A, D46G
B6: c11058 (antibody, V domains shown)
V domain 1: EVRLDQSGTEMRKPGTRVRLSCKVSGHTTSDFFVHWVQQTPQGGPQWMGLINVEDENVIYADIFQGRISIVADTSKKTVFLDLTDLTFEETALYFCTTHTLQKDTGDYVAAFDSWGRGTLLYVSS
V domain 2: QPVLTQPPSVSAVPGQKVIISCSGRTSNIGTNFVSWYQQFPGAAPKLLIYDDFNRPSGISDRFSASKSDTSATLAITALQPGDEAEYYCGAWDSGLNPAVFVFGSGTRVFVL
B7: c10833 (antibody, V domains shown)
V domain 1: EVRLDQSGAEMRKPGTSVRLSCTVSGHTTNDFFIHWVKQDPQRGPLWMGLINVEDENVIYAEEFQGRISIVADSSKTTVFLDLSHLTFEDTALYLCTTHTLEKETGDYVAAFDSWGQGTFLSVSS
V domain 2: B6 V domain 2 with P2S, D52T, N54H, A91S
B8: c7488 (antibody, V domains shown)
VH: QVRLEQWGGGLLKPSETLSLTCAAWDDNFHRYHWTWVRQFPGGRLQWIGQCEPFGAIKSNPSLGGRAGLSLDDSLRRFILTLRSLNVADTGVYFCVRGPERFHQPHFYYQGLGLWGPGSPVIVSS
VL: DVELTQSPLSLSVNPGESVSLFCRSTESLRNANGHDYLDWYVQKPGQSPQILIFLGSGRASGLPDRITASGSGSAFTLRIDKVEADDVGVYYCMQSIQLPRTFGQGTRLEIK
B9: c5237 (antibody, V domains shown)
VH: QVQLQESAPRLVKTSETLSLTCTVSGSHFYPYFYSWIRQSPGGKLQWIGRMYSTTGSMRTNPSLHTRVGMPLDHSRSQIGLTMSSMTAADTGIYYCVRDIMREFDSVDGSGGIYGGVDVWGRGTTVTVSS
VL: QFVLTQPPSVSGSPGKTVIISCTRSGGTFARNSVRWYLQRPGEIPTTVFFDGNRRASGIPDRFSASIGVSSTSASLTISGLTPEDEADYYCESSDGGHHVVFGGGTKVTVL
B10: c8395 (antibody, V domains shown)
VH: AVQFLQSGAEVKKPGESLKISCQDRGYGFNDYWIAWVRQMPGKGLEWMGLIYPDDSDTRYSPSFQGQVTILADKSINTAYLQWNSLKASDSAIYYCARLMVVDERSENTFDIWGQGTVVTVFS
VL: SSGLAQSPSLSVSPGQTATVTCSGDPLVNHFASWYQQQPGQSPILVIYQDNQRPSGIPERFSGSKTGNTATLTIGETQAADEADYFCQSWDITTAGMIFGGGTKLTVL
B11: c29323 (antibody, V domains shown)
VH: QVQLQESGPGLVRPSETLSLTCVVSGDSITRNYWSWLRQPPGKTLEWIGFMYDSGTVNYNPSLQSRVSISVDTSNNQFFLRLTSVTAADTAVYYCARHPSRGSDYDSATGDTYYYYYGMDVWGPGTSVVVSS
VL: DIQLTQSPPSLSASVGDRIVISCRATRDIGTSLNWYQQKPGQSPKLLIVAASTLESGVPSRFSAAGSATHFTLTISALQHDDVATYFCQQYLSLPLTFSGGTRVDLR
B12: c13217 (antibody, V domains shown)
VH: QVQLVESGGGVVQPGKSLRLSCTASGFDVGHFTMHWVRQAPGKGLEWVGLTRTDGNTEEYADSVKGRFAISRDNSKNTLSLQLNNVRAEDTAVYYCAKERVPLTAYAFDYWGQGTLVTVSS
VL: DIQMTQSPSSLSASVGDRVTITCRSSERIRTYVNWYQQKPGQAPQLLIYAASTLQNGVPSRFSGSGSGTVFTLTVNSLQPADFATYSCQQSYSLPWTFGQGTRVEVN
B13: c24148 (antibody, V domains shown)
VH: QVEVQESGPGLVKPSETLSLTCSVSGGSITGYYWSWIRQAPGKGLEWIGFISPGGSARYNPSLKSRVTISKDASTNQVSLRLISVTASDTAVYFCVRDGAAGNNWGYNYYGMDVWGQGTTVTVSS
VL: DIQLTQSPSTLSASIGDRVTITCRASQSISVWLAWYQQKPGKAPNLLIYRASTLDSGVPSRFSGSGSGTEFTLTISSLQPDDLGTYYCQHYDTPSRTFGPGTKVEIT
B14: c9674 (antibody, V domains shown)
VH: EVKLVESGGTLVKPGGSLRISCAASGFRFSSYSFNWVRQAPGKGPEWVAYISASPLGRSKVNYAHSVEGRFSVSRDNDAKSLHLQMSGLTRDDTAVYHCARAPWYEGNFNYNYAMDVWGQGTTVIVSS
VL: GVVLTQSPGTLSLSPGERVTVSCRASQSLSRDSLVWYQQKPGQPPRLLIYGASNRVPGIPDRFSGDGSGTQFTLTINRLEPEDFGVYYCQSYGHSPLYSFGQGTKLEIK
B15: c11465 (antibody, V domains shown)
VH: EVKLVESGGTQVQPGGSLRISCVGSGFRFSSYSFNWVRQAPGKGPEWVAYISASPFGRSKVTYAHSVEGRFIVSRDNDANSLYLQMTGLTRDDTAVYHCARAPYYEGNFQYNYAMDVWGLGTTVIVSS
VL: B14 VL with V19A, S30T, A52T, D66G, N77S, G85A, H94L, E107D

The binders below were run against HIV-1 NL4-3 Env on infected cells (HIV-1 group M subtype B, NL4-3 (pNL4-3 …, strain)).
B1: binds.
B2: binds.
B3: binds.
B4: binds.
B5: binds.
B6: binds.
B7: binds.
B8: binds.
B9: binds.
B10: binds.
B11: binds.
B12: binds.
B13: binds.
B14: binds.
B15: binds.
